{"source": "patent US20030211587A1", "about": "(University of Texas, published 2003)", "molecular_target": "the molecule itself", "assay": "native gel electrophoresis of purified His-tagged keptin (self-association)", "description": "Analysis of His-tagged keptin recombinant protein. Crude proteins were extracted from E. Coli transformed with a bacterial expression vector encoding a secreted form of keptin tagged with 10× histidine residues at its N-terminus. The extracts were affinity purified with nickel resins and subjected to SDS-PAGE analysis under denatured conditions. […] The purified protein was also analyzed for its biochemical properties by native gel electrophoresis. Both keptin dimers and monomers were detected in the native gel. Leptin (MW: 14 kDa) was used as a reference for a monomer protein with similar molecular weight to His-Keptin (11.4 kDa)."}
{"protein": "His-tagged keptin recombinant protein (human mature keptin with N-terminal 10x histidine, from pET-hKeptin in E. coli) (other, UniProt P60985 23-99, looked up, mature; also called His-keptin; His-Keptin; not shown: N-terminal 10x histidine tag encoded by vector pET-16b) ATLGGPEEESTIENYASRPEAFNTPFLNIDKLRSAFKADEFLNWHALFESIKRKLPFLNWDAFPKLKGLRSATPDAQ", "values": [{"measurement": "binding result", "value": "binds"}]}
